Measurements published in US20260117204A1, “STABILIZER FOR URATE OXIDASE AND PEGYLATED CONJUGATE THEREOF, AND PHARMACEUTICAL USE OF STABILIZER” (Hangzhou Grand Biologic Pharmaceutical Inc., priority 2023, published 2026).

B1: urate oxidase from Micrococcus: Homemade recombinant urate oxidase from wild-type Micrococcus (SEQ ID NO: 9), not PEG modified (protein)
chain: MTNIILGKNQYGKAEVRLVKVTRNTCRHEIQDLNVTSQLRGDFEAAHTAGDNAHVVATDTQKNTVYAFARDGFATTEEFLLRLGKHFTEGFDWVTGGRWAAQQFFWDRINDHDHAFSRNKSEVRTAVLEISGSEQAIVAGIEGLTVLKSTGSEFHGFPRDKYTTLPETEDRILATDVSARWRYNTVEVDFDAVYADVRGLLLKAFAETHSLALQQTMYEMGRAVIETHPEIDEIKMSLPNKHHFLVDLSPFGQDNPNEVFYAADRPYGLIEATIQREGCRADHPIWSN
B2: S1: Commercially available unmodified urate oxidase from Aspergillus flavus (SEQ ID NO: 8) (protein)
chain: SAVKAARYGKDNVRVYKVHKDEKTGVQTVYEMTVCVLLEGEIETSYTKADNSVIVATDSIKNTIYITAKQNPVTPPELFGSILGTHFIEKYNHIHAAHVNIVCHRWTRMDIDGKPHPHSFIRDSEEKRNVQVDVVEGKGIDIKSSLSGLTVLKSTNSQFWGFLRDEYTTLKETWDRILSTDVDATWQWKNFSGLQEVRSHVPKFDATWATAREVTLKTFAEDNSASVQATMYKMAEQILARQQLIETVEYSLPNKHYFEIDLSWHKGLQNTGKNAEVFAPQSDPNGLIKCTVGRSSLKSKL
B3: S2: Homemade recombinant pig-baboon chimeric urate oxidase (SEQ ID NO: 1), not PEG modified (protein)
chain: TYKKNDEVEFVRTGYGKDMIKVLHIQRDGKYHSIKEVATTVQLTLSSKKDYLHGDNSDVIPTDTIKNTVNVLAKFKGIKSIETFAVTICEHFLSSFKHVIRAQVYVEEVPWKRFEKNGVKHVHAFIYTPTGTHFCEVEQIRNGPPVIHSGIKDLKVLKTTQSGFEGFIKDQFTTLPEVKDRCFATQVYCKWRYHQGRDVDFEATWDTVRSIVLQKFAGPYDKGEYSPSVQKTLYDIQVLTLGQVPEIEDMEISLPNIHYLNIDMSKMGLINKEEVLLPLDNPYGKITGTVKRKLSSRL

What was measured:
[1] = Stability of S1 and S2 urate oxidase with/without xanthine at 37° C.: SEC detection of high and low molecular proteins; assay type: physicochemical; details: for High molecular weight % / Low molecular weight % / Main peak %: storage 37° C. ± 2° C.
Procedure: SEC, 7.8×300 mm chromatographic column or equivalent column was selected. 0.05 mol/L Na2HPO4—NaH2PO4, 0.3 mol/L NaCl, pH 7.0 was used as the mobile phase. The flow rate of HPLC was set to be 0.5 ml/min, and the detection wavelength to 280 nm. Isocratic elution was performed for 35 min, and the injection volume was 10 μl.
(§1) In this example of the present disclosure, xanthine was added to the S1 and S2 samples at a molar ratio of 26 times (xanthine:urate oxidase). The samples were packaged and placed at 37° C. for stability evaluation at days 0, 1.5, 6, and 16. The evaluation indicators include the content of high and low molecular proteins and enzyme specific activity.

[2] = Stability effect of xanthine on urate oxidase from Micrococcus at 2° C. to 8° C.: SEC; assay type: physicochemical; details: for High molecular weight % / Low molecular weight % / Main peak area / Main peak ratio % / Total peak area: SEC
Procedure: SEC, 7.8×300 mm chromatographic column or equivalent column was selected. 0.05 mol/L Na2HPO4—NaH2PO4, 0.3 mol/L NaCl, pH 7.0 was used as the mobile phase. The flow rate of HPLC was set to be 0.5 ml/min, and the detection wavelength to 280 nm. Isocratic elution was performed for 35 min, and the injection volume was 10 μl. From the SEC results of the stability test at 2° C. to 8° C. in Table 3, it can be seen that the total peak area of the group with small molecules added on day 15 is larger and the main peak ratio thereof is higher.

[3] = Effect of xanthine on the activity of PEGylated urate oxidase (UV 293 nm); assay type: biochemical; details: xanthine 0.075 to 1.2 μg/ml
Procedure: The method used for determining the activity of urate oxidase and PEGylated urate oxidase was as follows. […] Therefore, the UV spectrophotometer detection wavelength was 293 nm. The buffer solution was used as a blank control, and the absorption zero point was calibrated. In the quartz cuvette, 2.95 ml of substrate reaction solution was added followed by 50 μl of the test solution, mixed immediately, and the light absorption value at 293 nm was measured. According to C=A/εL (A being the absorbance value of a specific concentration of uric acid at 293 nm, εbeing the molar extinction coefficient of uric acid, L being the light path of the cuvette, and C being the molar concentration of uric acid), the degradation concentration of uric acid and then the enzyme activity were calculated. Definition of the activity of urate oxidase and PEGylated urate oxidase: at the optimal reaction temperature of 37° C. and the optimal reaction pH of 9.5, the amount of enzyme required to convert […] uric acid into allantoin per minute being defined as one activity unit (U). […] The PEGylated urate oxidase solution was mixed with different amounts of xanthine at a molar ratio of 0.05 mg/ml PEGylated urate oxidase to xanthine of 1:0, 1:3, 1:11, and 1:44, and then the activity of urate oxidase and polyethylene glycol-modified urate oxidase was determined according to the above-mentioned detection method.

[4] = Description: As the amount of xanthine added increases, the pH of the solution needs to be further increased to dissolve xanthine. However, high pH conditions will cause protein denaturation. […] The stability change trend of PEGylated urate oxidase tetramer was detected by the detection method of high and low molecular proteins of PEGylated urate oxidase.
The situation where the molar ratio of xanthine to PEGylated urate oxidase was higher than 26:1 was studied.

[5] = Stability effect of xanthine on urate oxidase from Micrococcus at 2° C. to 8° C.: enzyme activity; assay type: biochemical; details: storage 2° C. to 8° C., 15 d
Procedure: (§2) The method used for determining the activity of urate oxidase and PEGylated urate oxidase was as follows. […] Therefore, the UV spectrophotometer detection wavelength was 293 nm. The buffer solution was used as a blank control, and the absorption zero point was calibrated. In the quartz cuvette, 2.95 ml of substrate reaction solution was added followed by 50 μl of the test solution, mixed immediately, and the light absorption value at 293 nm was measured. According to C=A/εL (A being the absorbance value of a specific concentration of uric acid at 293 nm, εbeing the molar extinction coefficient of uric acid, L being the light path of the cuvette, and C being the molar concentration of uric acid), the degradation concentration of uric acid and then the enzyme activity were calculated.
(§3) Definition of the activity of urate oxidase and PEGylated urate oxidase: at the optimal reaction temperature of 37° C. and the optimal reaction pH of 9.5, the amount of enzyme required to convert […] uric acid into allantoin per minute being defined as one activity unit (U).

[6] = Stability of S1 and S2 urate oxidase with/without xanthine at 37° C.: enzyme specific activity (uric acid absorbance at 293 nm); assay type: biochemical; details: storage 37° C. ± 2° C.
Procedure: as §2, §3, §1

[7] = immediate detection after process preparation

Molecule | High molecular weight % ([1]; 0 d) [%] | Low molecular weight % ([1]; 0 d) [%] | Main peak % ([1]; 0 d) [%] | High molecular weight % ([1]; 1.5 d) [%] | Low molecular weight % ([1]; 1.5 d) [%] | Main peak % ([1]; 1.5 d) [%] | High molecular weight % ([1]; 6 d) [%] | Low molecular weight % ([1]; 6 d) [%] | Main peak % ([1]; 6 d) [%] | High molecular weight % ([1]; 16 d) [%] | Low molecular weight % ([1]; 16 d) [%] | Main peak % ([1]; 16 d) [%] | Enzyme specific activity U/mg ([6]; 0 d) [U/mg] | Enzyme specific activity U/mg ([6]; 1.5 d) [U/mg] | Enzyme specific activity U/mg ([6]; 6 d) [U/mg] | Enzyme specific activity U/mg ([6]; 16 d) [U/mg] | other results
O=c1[nH]c(=O)c2[nH]cnc2[nH]1 [xanthine] |  |  |  |  |  |  |  |  |  |  |  |  |  |  |  |  | effect of xanthine on the product stability of commercially available products and PHC ([1]; 26 times molar ratio, 37° C.): significantly improve the product stability; effect of xanthine on the stability of the enzyme derived from Micrococcus ([2]; 26 times xanthine, 2° C. to 8° C., day 15, text): improve the stability of the enzyme derived from Micrococcus to a certain extent; effect of the addition of xanthine on the activity of PEGylated urate oxidase [3]: no effect; solubility of xanthine [4]: good solubility
B1 |  |  |  |  |  |  |  |  |  |  |  |  |  |  |  |  | High molecular weight % [2, 7]: 40.01%; Low molecular weight % [2, 7]: 2.34%; Main peak area [2, 7]: 3,986; Main peak ratio % [2, 7]: 57.65%; Total peak area [2, 7]: 6914.90; High molecular weight % ([2]; storage 2° C. to 8° C., 15 d): 74.58%; Low molecular weight % ([2]; storage 2° C. to 8° C., 15 d): 9.11%; Main peak area ([2]; storage 2° C. to 8° C., 15 d): 814; Main peak ratio % ([2]; storage 2° C. to 8° C., 15 d): 16.31%; Total peak area ([2]; storage 2° C. to 8° C., 15 d): 4993.05; Enzyme activity U/mg [5]: 3.58 U/mg
B2 | 0.3 | 1 | 98.8 | 0.2 | 5.6 | 94.2 | 7.3 | 17.7 | 75 | 17.2 | 51.7 | 31 | 15.3 | 12.6 | 8.5 | 3 | 
B3 | 0.7 | 0.3 | 99 | 54.5 | 0.2 | 45.3 | 75.1 | 0.5 | 24.4 | 85.1 | 5 | 9.9 | 11.3 | 5.2 | 3.2 | 1.2 | 
